Results reported in US20070178082A1 (Ablynx, published 2007).

How the values were obtained:
mouse serum albumin = target: T1, mouse serum albumin (mouse, UniProt P07724 25-608); assay: BIACORE, mouse albumin immobilised on CM5 chip
T1 construct: also called MSA; mouse albumin

rabbit serum albumin = rabbit serum albumin (rabbit, UniProt P49065 25-608); assay: Blot: phage displaying the nanobody on plasma (1/10) separated by SDS-PAGE and blotted on nitrocellulose, anti-M13-HRP [panel MSA 24]
Sequence of rabbit serum albumin (P49065 25-608 limits assumed): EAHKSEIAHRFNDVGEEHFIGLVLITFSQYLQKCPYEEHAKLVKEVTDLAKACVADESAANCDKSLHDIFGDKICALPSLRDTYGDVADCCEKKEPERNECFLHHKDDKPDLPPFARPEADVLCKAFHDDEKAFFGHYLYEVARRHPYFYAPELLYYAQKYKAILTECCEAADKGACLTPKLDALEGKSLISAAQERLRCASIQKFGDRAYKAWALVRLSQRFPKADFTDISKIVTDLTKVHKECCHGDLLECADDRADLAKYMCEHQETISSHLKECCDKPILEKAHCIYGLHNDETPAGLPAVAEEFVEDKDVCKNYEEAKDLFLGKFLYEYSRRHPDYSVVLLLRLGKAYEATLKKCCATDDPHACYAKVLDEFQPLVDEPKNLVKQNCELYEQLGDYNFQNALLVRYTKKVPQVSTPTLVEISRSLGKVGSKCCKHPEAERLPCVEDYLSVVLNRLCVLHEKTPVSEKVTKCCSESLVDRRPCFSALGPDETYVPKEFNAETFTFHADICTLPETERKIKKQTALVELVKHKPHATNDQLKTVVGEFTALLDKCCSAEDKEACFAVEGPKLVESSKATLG

T1 sequence (P07724 25-608 limits assumed): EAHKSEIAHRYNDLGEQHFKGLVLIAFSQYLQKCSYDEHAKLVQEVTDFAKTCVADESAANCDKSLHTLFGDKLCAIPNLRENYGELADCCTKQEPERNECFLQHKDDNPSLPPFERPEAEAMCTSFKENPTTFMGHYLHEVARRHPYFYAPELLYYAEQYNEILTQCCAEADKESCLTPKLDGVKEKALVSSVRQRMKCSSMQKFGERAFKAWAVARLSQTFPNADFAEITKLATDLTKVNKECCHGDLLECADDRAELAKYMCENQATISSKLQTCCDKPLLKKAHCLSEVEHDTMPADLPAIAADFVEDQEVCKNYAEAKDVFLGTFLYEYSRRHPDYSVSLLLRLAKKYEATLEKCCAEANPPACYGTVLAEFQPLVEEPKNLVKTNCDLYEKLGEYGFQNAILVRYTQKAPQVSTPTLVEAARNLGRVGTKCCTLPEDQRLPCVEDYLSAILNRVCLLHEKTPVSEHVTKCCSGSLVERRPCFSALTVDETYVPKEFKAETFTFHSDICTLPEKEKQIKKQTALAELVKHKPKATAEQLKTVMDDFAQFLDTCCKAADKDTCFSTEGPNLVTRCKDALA

- Kd (mouse serum albumin): 28 nM
- koff (mouse serum albumin): 0.018 s⁻¹
- kon (mouse serum albumin): 640000 M⁻¹ s⁻¹
- binding result (rabbit serum albumin): no binding
B1: MSA24 (VHH)
VHH: QVQLQESGGGLVQPGNSLRLSCAASGFTFRNFGMSWVRQAPGKEPEWVSSISGSGSNTIYADSVKDRFTISRDNAKSTLYLQMNSLKPEDTAVYYCTIGGSLSRSSQGTQVTVSS
notes: Llama VHH selected on mouse serum albumin
